Each block holds one binder with its values, some of them ahead of it.
Assays:
[1] = target: T1, human LILRB4 (human, UniProt Q8NHJ6 22-259, limits assumed); test: ELISA; lower end of the range, tied to #214 by Table 1
T1 construct: also called leukocyte immunoglobulin-like receptor subfamily B member 4

[2] = target: T1, human LILRB4; test: ELISA; upper end of the range, tied to #216-1 by Table 1
[3] = target: T1, human LILRB4; test: ELISA

EC50 [1]: 0.05 nM
B1: anti-LILRB4 rabbit monoclonal antibody #214 (antibody, V domains shown)
VH: QSVKESGGRLVTPGTPLTLTCTVSGFSLSSYWMHWVRQAPGKGLEWVGVVSVSGNFYYATWAKGRFTISKTSTTVDLKITSPTIEDTAFYFCTMSFALWGQGTLVTISS
VL: ELVMTQTASPVSAAVGGTVTINCQSSQSVYSNNNLGWLKQKPGQPPKELIYYASTLASGVPSRFKGSGSGTQFTLTISDLECDDAATYYCVGGYGCSSADCSVFGGGTEVEIK
notes: Rabbit monoclonal antibody

EC50 [2]: 0.3 nM
B2: anti-LILRB4 rabbit monoclonal antibody #216-1 (antibody, V domains shown)
VH: EQSVEESGGGLVKPGASLTLTCIASGFSFSSSYVMCWVRQAPGKGLELIACIHAGGSGSTYYASWAKGRFTISKTSSTTVTLQMTSLTAADTATYFCARYNYHFYYIGDYSDLWGPGTLVTVSS
VL: ELVMTQTPSSVSAAVGGTVTIKCQASEDIDSYLAWYQQKPGQRPKVLIYRASTLASGVPSRFKGSGSGTEFTLTISGLECDDAATYYCQQGWSNDVGSNAFGGGTKVEIK
notes: Rabbit monoclonal antibody

EC50 [3]: 0.0808 nM
B3: anti-LILRB4 rabbit monoclonal antibody #78 (antibody, V domains shown)
VH: QSLQESGGRLVTPGTPLTLTCTVSGIDLSVYLMSWVRQSPGKGLEYIGFINSAGITAYATWAKGRFIISKTSTTVDLKVTSPTTEDTATYFCARNWIRLDLWGQGTLVTISS
VL: ELVLTQTPASVSAAVGGTVTISCQSSESIYKNYLSWFQQKPGQPPKLLIYETSKLASGVPSRFSGSGSGTQFTLTISDVQCDDAATYYCLGGYTNGRDTIFGGGTELEIK
notes: Rabbit monoclonal antibody; also called mAb 78; bin 1

— patent US20180086829A1 (published 2018)
